From the supplement of paper PMC12042874 come the findings set out here.

The nature of this series: amyloid nucleation score (Sup35N fusion, yeast selection) (log enrichment); library NNK3; higher = more nucleation; inactive = no reads after selection. The essentials:
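Yeast lacking psi expressed peptides of 20 random codons fused to Sup35N, received 100 μM copper sulfate for 24 hours, and were then grown for 7 days at 30°C on medium lacking adenine and uracil. Illumina sequencing of input and output plasmid inserts provided the reads. Nucleation scores are DiMSum log enrichments of output over input, centred on the mode of non-aggregating sequences. Any sequence with under 100 input reads was excluded.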

± gives the uncertainty stated by the source.

In the case of INLGKTSIRSIDRNNVCMLG, the amyloid nucleation score result is “inactive”.

In the case of SSYLNSVNSCLNDNVSHCCS, the amyloid nucleation score is -0.343 ± 0.68.

Consider TSVCSHSEVCGWSYYTDLLS, for which the amyloid nucleation score result was “inactive”.

On to LRRYALGLSYCLEVK, for which the amyloid nucleation score result was “inactive”.

On to DNDQNGVREVERGVLTLSSV, for which the amyloid nucleation score entry is “inactive”.

Turning to ILIRREFGLFTNFSMYGSKA, the amyloid nucleation score result was “inactive”.

As to CYMFRDDRIVYHDGLNRHCK, the amyloid nucleation score entry is “inactive”.

Take ASDKMELILLLTSYRSYYDC: the amyloid nucleation score entry was “inactive”.

FLSKTLYIVVSHGVGTSGTG: the amyloid nucleation score entry was “inactive”.

As for TWISITWTWPWKKWVLNLRY, the amyloid nucleation score entry is “inactive”.

As for SKALVSLWFLISMMNPYFIR, the amyloid nucleation score result was “inactive”.

SLRWLISESAMRVKTMWRGG: the amyloid nucleation score result was “inactive”.

As for IPDDDFFLLALSTLN, the amyloid nucleation score entry was “inactive”.

Turning to VSVLMGAWDLMWMPGKS, the amyloid nucleation score came out at 1.08 ± 0.14.

Take PVDIVHVHAIRIMFMEGSDV: the amyloid nucleation score result was “inactive”.

As to DISKFNDSLSPSELSGLIFS, the amyloid nucleation score result is “inactive”.

Turning to SVLCWFSVR, the amyloid nucleation score entry was “inactive”.

Turning to YNNSTFYTEPTLWD, the amyloid nucleation score result is “inactive”.

In the case of MPYMW, the amyloid nucleation score came out at 0.73 ± 0.29.

For the substance RDNVFCVDVDICILVVR, the amyloid nucleation score result was “inactive”.

With RICRYGAIDLMGVP, the amyloid nucleation score entry was “inactive”.

Consider GSRVMMCPNT, for which the amyloid nucleation score result was “inactive”.

Substance FRVTMMSACRLDSIGLDCSC registered an amyloid nucleation score of 1.25 ± 0.086.

Regarding FVMLVSEYGKELYIIGRPGA, the amyloid nucleation score result was “inactive”.

As to VGNFLTLSVWDNSGRRIGEE, the amyloid nucleation score came to 0.705 ± 0.19.

On to NVDVTELCTAVTYNDLHGFR, for which the amyloid nucleation score result was “inactive”.

FSSVGRDDYCNGLM: the amyloid nucleation score result is “inactive”.

In the case of YLFRVTLNVALILMLSSRCE, the amyloid nucleation score result was “inactive”.

In the case of SQKRPMCFSCWTHMVFHSWF, the amyloid nucleation score is -0.257 ± 0.46.

As for RLLFSATFSRNFISCTKSSS, the amyloid nucleation score result is “inactive”.

For SQCGLTHSLVVGGSSVNTHT, the amyloid nucleation score entry was “inactive”.

Regarding LAASVNYILRNIDCGVRMRF, the amyloid nucleation score result is “inactive”.

Consider DITAG, for which the amyloid nucleation score entry is “inactive”.

On to NNTCMNGAVLWSEMAKTGGC, for which the amyloid nucleation score entry was “inactive”.

Substance LQYLRDCEFCRYVCYCNWLY showed an amyloid nucleation score of 0.443 ± 0.34.

As for YLNDCDFGVVFEMESKLWTA, the amyloid nucleation score entry is “inactive”.

Consider HALNSCDEFGTVMELCSCGS, for which the amyloid nucleation score result is “inactive”.

For HYRVLPPAVVRRRVMLL, the amyloid nucleation score result was “inactive”.

For VSNVSGSIHWGNFCAMNIAV, the amyloid nucleation score entry is “inactive”.

In turn, QFKYHYYNLCWSTSVFSFKN displayed an amyloid nucleation score of 0.837 ± 0.22.

For the substance WFMREAWIWSAPFWPWIRNT, the amyloid nucleation score result is “inactive”.

Turning to FITFLLVVFSKKCVNAK, the amyloid nucleation score result is “inactive”.

In the case of AWVLCVKERFRSAGCECTGF, the amyloid nucleation score entry was “inactive”.

For GGLLWAKCVMLILYYVPMGL, the amyloid nucleation score entry is “inactive”.

For HGVWRLSYVVVGCPLTEVSP, the amyloid nucleation score entry is “inactive”.

Turning to YMAAVTFFEVY, the amyloid nucleation score was determined as 0.012 ± 0.34.

With IFASDTVL, the amyloid nucleation score entry was “inactive”.

Take CMLSPV: the amyloid nucleation score entry was “inactive”.

For SLTLGCSDLGKGCREETYAG, the amyloid nucleation score result is “inactive”.

On to RSFSECWCWISKLVGYLGVT, for which the amyloid nucleation score result is “inactive”.

In the case of LSSCKLSYSKQLSRTVNQL, the amyloid nucleation score entry is “inactive”.

Take NATIKIFTTIISDYQFGMR: the amyloid nucleation score turned out to be 0.152 ± 0.3.

Consider SGAEDFQV, for which the amyloid nucleation score entry is “inactive”.

For the substance VRPLRSVLFDVASNVIGSVG, the amyloid nucleation score entry is “inactive”.

As for RQGAKVRTGGHKKQSGSSCR, the amyloid nucleation score entry is “inactive”.

For VNLDTSSGKT, the amyloid nucleation score result was “inactive”.

As for VVQSGRAFRCYRCSLEVQTE, the amyloid nucleation score result was “inactive”.

Regarding AIRKL, the amyloid nucleation score entry was “inactive”.

As for CDYIKAKSVTDVCGNP, the amyloid nucleation score result is “inactive”.

For the substance TFCLSYFHLL, the amyloid nucleation score result is “inactive”.

As to VYGLVRLALSAINDYEDYNL, the amyloid nucleation score entry was “inactive”.

Regarding LWQDMRLLSGLL, the amyloid nucleation score entry was “inactive”.

Turning to RHKWLFMWGCFHFNKCASH, the amyloid nucleation score entry was “inactive”.

As for CTSQVDT, the amyloid nucleation score entry was “inactive”.

For ALFAGLIECQCDNILGPETG, the amyloid nucleation score entry is “inactive”.

As to RWSHDMSCE, the amyloid nucleation score result was “inactive”.

On to RYRGFNVVVLIGKDRVGSAM, for which the amyloid nucleation score entry was “inactive”.

Substance AFYLMLVS yielded an amyloid nucleation score of 1.12 ± 0.12.

For the substance VFVMPDDNVC, the amyloid nucleation score result was “inactive”.

For VQLSMPGFGDWCRIRWVTAG, the amyloid nucleation score result is “inactive”.

Consider QYQCADGKDNFIL, for which the amyloid nucleation score result is “inactive”.

Regarding AVIDRNYVRTALAVMIASGH, the amyloid nucleation score entry is “inactive”.

With ACFWLIDVTKWLTCYRRSSN, the amyloid nucleation score result was “inactive”.

Substance LDIDSFYCVLR yielded an amyloid nucleation score of 1.23 ± 0.12.

In the case of GESYDCLLLHSRVWLSVVMG, the amyloid nucleation score entry is “inactive”.

As for LFATAEPMLRWVRSRLV, the amyloid nucleation score result is “inactive”.

For the substance CNCRKRLVWSFGYMNISMYL, the amyloid nucleation score result is “inactive”.

Substance LPFNGTGTAWCSAGAQLFGR registered an amyloid nucleation score of 0.837 ± 0.15.

On to GKLLP, for which the amyloid nucleation score entry was “inactive”.

Turning to TYTYCTLNSLTDSRSETILV, the amyloid nucleation score result was “inactive”.

With SNDNGTHVSNYRALSSDREK, the amyloid nucleation score entry was “inactive”.

Consider CSRSKNNTFRHSLWFHRYYA, for which the amyloid nucleation score entry was “inactive”.

For MYRLVGHLTIHVVMVLAQWW, the amyloid nucleation score entry was “inactive”.

Consider HLGYPVVLVLLLPSDDSGHL, for which the amyloid nucleation score entry is “inactive”.

As for WMVVTMPSLKCGSYASVHGA, the amyloid nucleation score result is “inactive”.

Regarding QQDTNDSGYYGRVGMLVSYW, the amyloid nucleation score result is “inactive”.

Regarding NIHFSITAQ, the amyloid nucleation score entry was “inactive”.

Consider CQVMSNFCNGMPQTQFGVGS, for which the amyloid nucleation score entry was “inactive”.

As to IDCLLLFSIGEVLKSGNNSR, the amyloid nucleation score was 0.335 ± 0.17.

Regarding VSMSMRYQDASGVTSCFTSL, the amyloid nucleation score result is “inactive”.

On to AVTKLILFVVSGGMLRVLEF, for which the amyloid nucleation score entry is “inactive”.

On to YFLEGNFESRWGECRSARSW, for which the amyloid nucleation score turned out to be 0.053 ± 0.52.

For NGTLSYCPDKELSTLVFLHY, the amyloid nucleation score entry was “inactive”.

STLCSSCKGFDRMRYILVTR: the amyloid nucleation score turned out to be 0.274 ± 0.38.

Take CSSKKRDV: the amyloid nucleation score result was “inactive”.

Consider GICKGNMYRFSMSYDSNLIM, for which the amyloid nucleation score entry is “inactive”.

FCRCKLFFAGCF gave an amyloid nucleation score of 1.08 ± 0.13.

SDLYDVVEPVAMVTCDSKEK: the amyloid nucleation score entry is “inactive”.

Turning to TVSCLLKKVSRIVTVCVEWD, the amyloid nucleation score entry was “inactive”.

Take HVCWVWMCEVFKAAIPSVTD: the amyloid nucleation score entry is “inactive”.

For the substance AGSILYGHYLDACGRHSRVI, the amyloid nucleation score result was “inactive”.

Consider ANSTNKQC, for which the amyloid nucleation score entry is “inactive”.

For the substance QSTIEKHDMPDRLFIVAAGS, the amyloid nucleation score result was “inactive”.

Take SWWVTGIALEHGSGLTVQVH: the amyloid nucleation score entry is “inactive”.

With ILHLQSPGQATCANNKCLFP, the amyloid nucleation score result was “inactive”.

Regarding SSPRGCKSELPSGLGTYCRV, the amyloid nucleation score entry is “inactive”.

Turning to SSLRLRDMSASENNRGSMPV, the amyloid nucleation score result is “inactive”.

Take DSSNGFICR: the amyloid nucleation score result is “inactive”.

Regarding ATAVMVRILQRACTFLDAKS, the amyloid nucleation score result was “inactive”.

Consider GCFNSCILYVLRLSIASVVS, for which the amyloid nucleation score entry is “inactive”.

Regarding IPAELDRQNSSAVNTPYHEM, the amyloid nucleation score result was “inactive”.

Regarding FSLSPIFWYAG, the amyloid nucleation score result is “inactive”.

As to RYPTDSVWGIGSGLVN, the amyloid nucleation score result is “inactive”.

In the case of ISNHLVVEYVRWIKSKLLGR, the amyloid nucleation score entry is “inactive”.

Consider LCLSSCWYTRGH, for which the amyloid nucleation score result is “inactive”.

With ISRSYCCVYT, the amyloid nucleation score result was “inactive”.

In the case of RSCMQLVCTCPFTGTTSRMI, the amyloid nucleation score was 2.63 ± 0.055.

With CFTRLVRRGNSQIKRAPGEP, the amyloid nucleation score result was “inactive”.

CQYFLSWRASVC: the amyloid nucleation score entry is “inactive”.

IGRVNSSGVQDGSHCYECES had an amyloid nucleation score of 0.481 ± 0.27.

For the substance FFADGARVYFANHVSKAFWF, the amyloid nucleation score is 1.96 ± 0.083.

Regarding PNGHLLYMYFFMRDGSSDRG, the amyloid nucleation score entry was “inactive”.

As to LDKCNHS, the amyloid nucleation score result was “inactive”.

As for VFRAGILESWHRWEGLGVVL, the amyloid nucleation score result was “inactive”.

Regarding YSYNKFAVEVYLSSLHPEMM, the amyloid nucleation score result was “inactive”.

As for QLCLKGSPIVVVRCLRHNKI, the amyloid nucleation score entry was “inactive”.

On to HLVAMMLCQLDTLTFYRYGG, for which the amyloid nucleation score result is “inactive”.

In turn, SCFCC registered an amyloid nucleation score of 3.09 ± 0.061.

With NGKLVFCWDKFIYVYRLTWW, the amyloid nucleation score result is “inactive”.
